Tests used:
Assay in all cases: SPR
[1] = target: Human CTLA-4 monomer
[2] = target: Cynomolgus CTLA-4 monomer
[3] = target: recombinant cynomolgus CTLA-4-Fc (Sino Biological, #90213-C02H)
[4] = target: recombinant human CTLA-4-Fc (R&D Systems, #7268-CT) (UniProt P16410 36-161)
Sequence of recombinant human CTLA-4-Fc (R&D Systems, #7268-CT) (P16410 36-161): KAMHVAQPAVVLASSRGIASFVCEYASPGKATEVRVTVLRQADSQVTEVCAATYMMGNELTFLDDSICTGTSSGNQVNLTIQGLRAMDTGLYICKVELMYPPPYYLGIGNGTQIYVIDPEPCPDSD

Sequence of recombinant cynomolgus CTLA-4-Fc (Sino Biological, #90213-C02H) (chain, as listed by the source C02H): as the sequence (P16410 36-161) above, with S14N, L106M counted along it

B1: AGEN2041w (antibody)
heavy: EVQLVESGGGLVKPGGSLRLSCAASGFTFSSYSMNWVRQAPGKGLEWVSSISSSSSYIYYADSVKGRFTISRDNAKNSLYLQMNSLRAEDTAVYYCARVGLMGPFDIWGQGTMVTVSSASTKGPSVFPLAPCSRSTSESTAALGCLVKDYFPEPVTVSWNSGALTSGVHTFPAVLQSSGLYSLSSVVTVPSSNFGTQTYTCNVDHKPSNTKVDKTVERKCCVECPPCPAPPVAGPSVFLFPPKPKDTLMISRTPEVTCVVVDVSHEDPEVQFNWYVDGVEVHNAKTKPREEQFNSTFRVVSVLTVVHQDWLNGKEYKCKVSNKGLPAPIEKTISKTKGQPREPQVYTLPPSREEMTKNQVSLTCLVKGFYPSDIAVEWESNGQPENNYKTTPPMLDSDGSFFLYSKLTVDKSRWQQGNVFSCSVMHEALHNHYTQKSLSLSPG
light: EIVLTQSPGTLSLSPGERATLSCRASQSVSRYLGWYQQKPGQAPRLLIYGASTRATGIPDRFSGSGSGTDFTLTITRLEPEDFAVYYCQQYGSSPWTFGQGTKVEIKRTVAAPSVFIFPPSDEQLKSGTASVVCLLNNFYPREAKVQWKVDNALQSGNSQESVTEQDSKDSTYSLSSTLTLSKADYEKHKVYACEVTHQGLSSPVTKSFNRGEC
For B1, the Kd [1] was 2 nM, the Kd [2] was 2.1 nM and the Kd [3] was 4.4 nM. For the same binder, the Kd [4] was 1.7 nM.

From patent publication US20220267443A1 (published 2022)
